B1: IL-4: cytokine (protein, UniProt P05112 25-153, looked up)
Interleukin-4: HKCDITLQEIIKTLNSLTEQKTLCTELTVTDIFAASKNTTEKETFCRAATVLRQFYSHHEKDTRCLGATAQQFHRHKQLIRFLKRLDRNLWGLAGLNSCPVKEANQSTLENFLERLKTIMREKYSKCSS
B2: IL-23: cytokine (protein, UniProt Q9NPF7 20-189; P29460 23-328, looked up)
Interleukin-23 subunit alpha: RAVPGGSSPAWTQCQQLSQKLCTLAWSAHPLVGHMDLREEGDEETTNDVPHIQCGDGCDPQGLRDNSQFCLQRIHQGLIFYEKLLGSDIFTGEPSLLPDSPVGQLHASLLGLSQLLQPEGHHWETQQIPSLSPSQPWQRLLLRFKILRSLQAFVAVAARVFAHGAATLSP
Interleukin-12 subunit beta: IWELKKDVYVVELDWYPDAPGEMVVLTCDTPEEDGITWTLDQSSEVLGSGKTLTIQVKEFGDAGQYTCHKGGEVLSHSLLLLHKKEDGIWSTDILKDQKEPKNKTFLRCEAKNYSGRFTCWWLTTISTDLTFSVKSSRGSSDPQGVTCGAATLSAERVRGDNKEYEYSVECQEDSACPAAEESLPIEVMVDAVHKLKYENYTSSFFIRDIIKPDPPKNLQLKPLKNSRQVEVSWEYPDTWSTPHSYFSLTFCVQVQGKSKREKKDRVFTDKTSATVICRKNASISVRAQDRYYSSSWSEWASVPCS
B3: IL-10: cytokine (protein, UniProt P22301 19-178, looked up)
Interleukin-10: SPGQGTQSENSCTHFPGNLPNMLRDLRDAFSRVKTFFQMKDQLDNLLLKESLLEDFKGYLGCQALSEMIQFYLEEVMPQAENQDPDIKAHVNSLGENLKTLRLRLRRCHRFLPCENKSKAVEQVKNAFNKLQEKGIYKAMSEFDIFINYIEAYMTMKIRN

system: DC2.4 cells and mouse GM-CSF-dependent BMDC; assay: Influence of cytokines on expression of cell surface HSP90 (FACS with 6H8); type: cell-based; details: BMDC, cytokines 100 ng/ml or 10 ng/ml
Procedure: In view of the possibility that cytokines are variation factors for the expression of cell surface HSP90, the influences of various cytokines on the expression of cell surface HSP90 were examined as described below.
The solid bars indicate the MFI for BMDC incubated in the presence of high concentrations of IFNs (as in FIG. 5B) or other cytokines (100 ng/ml); the grey bars indicate the MFI for BMDC incubated in the presence of low concentrations of IFNs (as in FIG. 5B) or other cytokines (10 ng/ml). The open bars indicate the MFI for BMDC incubated in the absence of the cytokines as negative controls.

**Q.** For B1, which “MFI of cell surface HSP90 after cytokine treatment versus negative control” value is on record?
**A.** Its value is “no significant difference from the negative control”.

**Q.** How did the “MFI of cell surface HSP90 after cytokine treatment versus negative control” value turn out when B2 was run?
**A.** Its value is “no significant difference from the negative control”.

**Q.** With B3 as the molecule, how does the “MFI of cell surface HSP90 after cytokine treatment versus negative control” value read?
**A.** The value was “no significant difference from the negative control”.

From patent US20110280881A1, “NOVEL ANTI-HSP90 MONOCLONAL ANTIBODY” (RIKEN, priority 2010, published 2011)
